Assay results taken from patent US9976167B2, “Group of glycosyltransferases and use thereof” (Shanghai Institutes For Biological Sciences, Chinese …, priority 2012, dated 2018).

B1: gGT25: glycosyltransferase protein with 475 amino acids, amino acid sequence SEQ ID NO.: 2, cloned from P. ginseng cDNA (protein)
chain: MKSELIFLPAPAIGHLVGMVEMAKLFISRHENLSVTVLIAKFYMDTGVDNYNKSLLTNPTPRLTIVNLPETDPQNYMLKPRHAIFPSVIETQKTHVRDIISGMTQSESTRVVGLLADLLFINIMDIANEFNVPTYVYSPAGAGHLGLAFHLQTLNDKKQDVTEFRNSDTELLVPSFANPVPAEVLPSMYVDKEGGYDYLFSLFRRCRESKAIIINTFEELEPYAINSLRMDSMIPPIYPVGPILNLNGDGQNSDEAAVILGWLDDQPPSSVVFLCFGSYGSFQENQVKEIAMGLERSGHRFLWSLRPSIPKGETKLQLKYSNLKEILPVGFLDRTSCVGKVIGWAPQVAVLGHESVGGFLSHCGWNSTLESVWCGVPVATWPMYGEQQLNAFEMVKELGIAVEIEVDYKKDYFNMKNDFIVRAEEIETKIKKLMMDENNSEIRKKVKEMKEKSRAAMSENGSSYNSLAKLFEEIM
modifications: Panax ginseng; gGT25
B2: gGT25-1: glycosyltransferase protein with 475 amino acids, SEQ ID NO.: 16 (protein)
chain: MKSELIFLPAPAIGHLVGMVEMAKLFISRHENLSVTVLIAKFYMDTGVDNYNKSLLTNPTPRLTIVNLPETDPQNYMLKPRHAIFPSVIETQKTHVRDIISGMTQSESTRVVGLLADLLFINIMDIANEFNVPTYVYSPAGAGHLGLAFHLQTLNDKKQDVTEFRNSDTELLVPSFANPVPAEVLPSMYVDKEGGYDYLFSLFRRCRESKAIIINTFEELEPYAINSLRMDSMIPPIYPVGPILNLNGDGQNSDEAAVILGWLDDQPPSSVVFLCFGSYGTFQENQVKEIAMGLERSGHRFLWSLRPSIPKGETKLQLKYSNLEEILPVGFLDRTSCVGKVIGWAPQVAVLGHEAVGGFLSHCGWNSTLESVWCGVPVATWPMYGEQQLNAFEMVKELGIAVEIEVDYKNEYFNMNNDFIVRAEEIETKIKKLMMDEKNSEIRKKVKEMKEKSRLAMSENGSSYNSLAKLFEEIM
modifications: Panax ginseng; gGT25-1
B3: gGT25-3: glycosyltransferase protein with 475 amino acids, SEQ ID NO.: 18 (protein)
chain: MKSELIFLPAPAIGHLVGMVEMAKLFISRHENLSVTVLIAKFYMDTGVDNYNKSLLTNPTPRLTIVNLPETDPQNYMLKPRHAIFPSVIETQKTHVRDIISGMTQSESTQVVGLLADLLFINIMDIANEFNVPTYVYSPAGAGHLGLAFHLQTLNDKKQDVTEFRNSDTELLVPSFANPVPAEVLPSMYVDKEGGYDYLFSLFRRCRESKAIIINTFEELEPYAINSLRMDSMIPPIYPVGPILNLNGDGQNSDEAAVILGWLDDQPPSSVVFLCFGSYGSFQENQVKEIAMGLERSGHRFLWSLRPSIPKGETKLQLKYSNLKEILPVGFLDRTSCVGKVIGWAPQVAVLGHESVGGFLSHCGWNSTLESVWCGVPVATWPMYGEQQLNAFEMVKELGIAVEIEVDYKKDYFNMKNDFIVRAEEIETKIKKLMMDENNSEIRKKVKEMKEKSRAAMSENGSSYNSLAKLFEEIM
modifications: Panax ginseng; gGT25-3
B4: gGT29-5: glycosyltransferase protein with 446 amino acids, SEQ ID NO.: 57 (protein)
chain: MDNQKGRISIVMLPFLAHGHISPFFELAKHLSKRNCNIFLCSTPINLSSIKNRISDKDSSASIKLVELHLPSSPDLPPHYHTTNGLPSHLMVPLRNAFETAAPTFSEILKTLNPDLLIYDFNPSWAPEIASSHNIPAVCFIIGGAASFSMSLHSFKNPGEKYPFLDFDDNSNITPEPPSADNMKLLLDFMTCFERSCDIILIKSFRELEGKYIDLLSTLSDKTLVPVGPLVQDPMGHNEDPKTEQIINWLDKRAESTVVFVCFGSEYFLSNEELEEVAIGLEISMVNFIWAVRLIEGEKKGVLPEGFVQRVGDRGLVVEGWAPQARILGHSSTGGFVSHCGWSSIAESMKFGVPVIAMARHLDQPLNGKLAAEVGVGMEVVRDENGKYKREGIAEVIRKVVVEKSGEVIRRKARELSEKMKEIGEQLIDRAVEELVQICKKKKDEQ
modifications: Panax ginseng; gGT29-5
B5: gGT29-7: glycosyltransferase protein with 446 amino acids, SEQ ID NO.: 61 (protein)
chain: MDNQKGRISIALLPFLAHGHISPFFELAKQLAKRNCNVFLCSTPINLSSIKNRVSDKDSSASIKLVELHLPSSPDLPPHYHTTNGLPSHLMIPLRNAFDTAGPTFSEILKTLNPDLLIYDFNPSWAPEIASSHNIPAVCFIIGGAASSSMSLHSFKNPGEKYPFLDFDDNSNITPEPPSADNMKLLINFMTCFERSCDIILIKSFRELEGKYFDFFSTLSDKTLVPVGPLVQDPMGHNEDPKTEQFINWLDKRAESTVVFVCFGSECFLSNEELEEVAIGLEISMVNFIWAVRLIEGEKKGVLPEGFVQRVGDRGLVVEEWAPQARILGHSSTGGFVSHCGWNSITESMKFGVPVIAMARHFDQPLNGKLAAEVGVGMEVVRDENGKYKREGIAEVIRKVVVEKSGEVIRRKARELSEKMKEKGEQEIDRVVEELVQICKKKKDEQ
modifications: Panax ginseng; gGT29-7

How the values were obtained:
Type in all cases: biochemical
[1] = Glycosyltransfering reaction with crude enzyme, substrate PPD; details: for glycosylation of C20-OH of PPD (product CK): crude enzyme: lysate supernatant of recombinant yeast, UDP-glucose
Experimental: (§1) The lysate supernatant of the recombinant yeasts expressing the empty vector was used as control.
(§2) The reaction was conducted under 35° C. for 12 hrs, then stopped by adding 100 μL of butanol. The product were extracted, dried in vacuum, and dissolved in methanol.
(§3) The reaction products were first detected by thin layer chromatography (TLC).
(§4) The converted products of gGT25 were further identified by HPLC (FIG. 10 and FIG. 11). The retention time of peak 2 was identical to that of the CK standard sample; the retention time of peak 3 was identical to that of PPD. […] Peak 1, also present in the profile of the negative control, indicated its irrelevance to the conversion of PPD. 3 peaks were shown in FIG. 11, the retention time of peak 1 was identical to that of F1 standard sample and peak 3 was identical to that of PPT. […] Peak 2, also present in the profile of the negative control, indicated its irrelevance to the conversion of PPT.
(§5) According to the method as in Example 4, the cell lysate of recombinant yeasts expressing gGT13 and gGT30 were used to catalyze PPD and PPT.
The cell lysis supernatant of the recombinant E. coli was used as crude enzyme to conduct the glycosyltransfering reaction, and the reaction condition was identical to that of Example 4.
The reaction was conducted under 35° C. for 12 hrs. 100 μL of butanol was added to stop the reaction and the products were extracted. Upon vacuum drying, the product was dissolved by methanol. TLC was first used to detect the reaction product.
(§6) The glycosyltransfering reactions of ginsenosides and ginsengenins were catalyzed by using the lysis supernatant of the recombinant yeasts expressing 3GT1, 3GT2, 3GT3 and 3GT4 as crude enzymes. The lysis supernatant of recombinant E. coli expressing empty vectors was used as control. The 100 μL reaction system is shown as Table 3. The reaction was conducted under 35° C. for 12 hrs, then stopped by adding 100 μL of butanol. The product were extracted, dried in vacuum, and dissolved in methanol.
The reaction was conducted under 35° C. for 12 hrs, and then stopped by adding 100 μL of butanol. The product were extracted, dried in vacuum, and dissolved in methanol. The reaction products were first detected by thin layer chromatography (TLC) (FIG. 35).

[2] = Glycosyltransfering reaction with crude enzyme, substrate PPT; details: for glycosylation of C6-OH of PPT (product Rg1 or Rh1) / glycosylation of C20-OH of PPT (product F1): crude enzyme: lysate supernatant of recombinant yeast, UDP-glucose, 35° C., 12 hrs, TLC
Experimental: as §1, §2, §3, §4, §5, §6

[3] = Glycosyltransfering reaction with crude enzyme, substrate DM; details: crude enzyme: lysate supernatant of recombinant yeast; UDP-glucose, 35° C., 12 hrs; TLC
Experimental: as §1, §2, §3, §6

[4] = Glycosyltransfering reaction with crude enzyme, substrate Rh2; details: crude enzyme: lysate supernatant of recombinant yeast; UDP-glucose, 35° C., 12 hrs; TLC
Experimental: as §1, §2
(§7) The reaction products were first detected by thin layer chromatography (TLC). […]
(§8) The lysate supernatant of the recombinant yeast expressing empty vectors was used as control. The reaction was conducted under 35° C. for 12 hrs, and then stopped by adding 100 μL of butanol. The product were extracted, dried in vacuum, and dissolved in methanol.
(§9) The glycosyltransfering reactions of ginsenosides Rh2 and F2 were catalyzed by using the lysate supernatant of the recombinant yeasts expressing 3GT1, 3GT2, 3GT3 and 3GT4 as crude enzymes. The 100 μL reaction system is shown as Table 3. The reaction was conducted under 35° C. for 12 hrs, and then stopped by adding 100 μL of butanol. The product were extracted, dried in vacuum, and dissolved in methanol.

[5] = Glycosyltransfering reaction with crude enzyme, substrate Rg3; details: crude enzyme: lysate supernatant of recombinant yeast; UDP-glucose, 35° C., 12 hrs; TLC
Experimental: as §1, §2, §7

[6] = Glycosyltransfering reaction with crude enzyme, substrate Rh1; details: crude enzyme: lysate supernatant of recombinant yeast; UDP-glucose, 35° C., 12 hrs; TLC
Experimental: as §1, §2, §7

[7] = Glycosyltransfering reaction with crude enzyme, substrate Rg2; details: crude enzyme: lysate supernatant of recombinant yeast; UDP-glucose, 35° C., 12 hrs; TLC
Experimental: as §1, §2, §3

[8] = Glycosyltransfering reaction with crude enzyme, substrate Rf; details: crude enzyme: lysate supernatant of recombinant yeast; UDP-glucose, 35° C., 12 hrs; TLC
Experimental: as §1, §2, §3

[9] = Glycosyltransfering activities on ginsengenins and saponins: glycosylation site and specificity (summary); details: for glycosylation site: C6 / glycosylation site: C20 / glycosylation site: The first glycosyl at C-3: Table 2, tetracyclic triterpenoid substrates; for extension of carbohydrate chain: crude enzyme: lysate supernatant of recombinant yeast, UDP-glucose, 35° C., 12 hrs, TLC
Experimental: More than 100 predicted cDNA sequences of glycosyltransferases were extracted from the published expression profile data of the Panax plant. 60 cDNAs with full length were cloned, expressed, and subjected to the analysis of glycosyltransfering reaction.
as §1, §2, §6, §8, §9

[10] = Glycosyltransfering reaction with crude enzyme, substrate F2; details: crude enzymes of Example 21 (E. coli expression products); 35° C., 12 hrs; TLC
Experimental: as §5, §8, §9

[11] = Glycosyltransfering reaction with crude enzyme, substrate Rh2; details: crude enzymes of Example 21 (E. coli expression products); 35° C., 12 hrs; TLC
[12] = crude enzyme from recombinant yeast, HPLC

Molecule	transformation of PPD into CK [1, 12]	transformation of PPD into CK ([1]; crude enzyme: cell lysis supernatant of recombinant E. coli, 35° C., 12 hrs, TLC)	glycosylation of C20-OH of PPD (product CK) ([1]; 35° C., 12 hrs, TLC)	transformation of PPT into F1 [2, 12]	glycosylation of C6-OH of PPT (product Rg1 or Rh1) [2]	glycosylation of C20-OH of PPT (product F1) [2]	glycosylation of C20-OH of DM (product 20-O-β-(D-glucopyranosyl)-dammarendiol II) [3]	glycosylation of C20-OH of Rh2 (product F2) [4]	glycosylation of C20-OH of Rg3 (product Rd) [5]	glycosylation of C20-OH of Rh1 [6]	glycosylation of C20-OH of Rg2 [7]	glycosylation of C20-OH of Rf [8]	glycosylation site: C6 [9]	glycosylation site: C20 [9]	extension of carbohydrate chain [9]	extension of C3 glycosyl of F2 by one more glycosyl (product Rd) [10]	glycosylation site: The first glycosyl at C-3 [9]	extension of C3 glycosyl of Rh2 by one more glycosyl (product Rg3) [11]
B1	substantially transformed	could transform PPD into CK	glycosylated the C20-OH	substantially transformed	C6-OH could be further glycosylated	glycosylated the C20-OH	could also glycosylate C20-OH	further glycosylated at C20-OH	further glycosylated at C20-OH	could not be catalyzed	could not be catalyzed	could not be catalyzed	✓	✓	could not catalyze	–	–	–
B2	–	–	glycosylated the C20-OH	–	C6-OH could be further glycosylated	glycosylated the C20-OH	could also glycosylate C20-OH	further glycosylated at C20-OH	further glycosylated at C20-OH	could not be catalyzed	could not be catalyzed	could not be catalyzed	✓	✓	could not catalyze	–	–	–
B3	–	–	glycosylated the C20-OH	–	C6-OH could be further glycosylated	glycosylated the C20-OH	could also glycosylate C20-OH	further glycosylated at C20-OH	further glycosylated at C20-OH	could not be catalyzed	could not be catalyzed	could not be catalyzed	✓	✓	could not catalyze	–	–	–
B4	–	–	–	–	–	–	–	–	–	–	–	–	–	–	–	could be extended by one more glycosyl	✓	could not be catalyzed
B5	–	–	–	–	–	–	–	–	–	–	–	–	–	–	–	could be extended by one more glycosyl	✓	could not be catalyzed
